Article PMC5295395, “Inhibition of PlexA1-mediated brain tumor growth and tumor-associated angiogenesis using a transmembrane domain targeting peptide” (Oncotarget, 2016)

Legend:
[1] = molecular target: Plexin-A1 (human (endogenous in U373MG and U118MG)) (UniProt Q9UIW2); assay: co-IP; immunoprecipitation of PlexA1 from U373MG cells stimulated with Sema3A (100 ng/ml) or VEGF (100 ng/ml) with MTP-PlexA1 (10^-7 M); amount of co-precipitated NRP1 and PlexA4 against no peptide
[2] = molecular target: Plexin-A1 (human (endogenous in U373MG and U118MG)) (UniProt Q9UIW2); assay: proximity ligation; proximity ligation assay on tumor tissue sections of U118MG-Luc xenografts; mice treated with MTP-PlexA1 against control mice
[3] = molecular target: Plexin-A1 (human (endogenous in U373MG and U118MG)) (UniProt Q9UIW2); assay: proximity ligation; in situ proximity ligation assay (Duo-link) on U373MG cells; MTP-PlexA1 (10^-7 M) added, NRP1/PlexA1 complexes counted against vehicle
NRP1/PlexA1 complexes = assay: in situ proximity ligation assay (Duo-link), NRP1/PlexA1 complexes in U373MG cells; assay type: cell-based, human; settings: specificity control, MTP-Neu at 10–6 M
Protocol: “Zip sequence” is the positive control of dimerization and “Empty” is the negative control of this bacterial system. (C, D) SPR assay (Biacore) to quantify MTP-PlexA1 interactions with PLexA1, NRP1 and VEGFR2 TMDs. (E) Proximity ligation assay showing that MTP-PlexA1 (10^−7 M) decreases the number of PLexA1-NRP1 interactions (green dots) in U373MG cells (scale bar = 20 μm).
Additional specificity controls were performed using a mutated version of MTP-PlexA1 (in which 3 glycines of the GxxxGxxxG motif were replaced by 3 valines or MTP-Neu, an anti-breast cancer peptide known to not interact with PlexA1) as described in Supplementary Figure S2. […] Similar results were obtained when cells were exposed to VEGF (39.4% NRP1 and 35.4% PlexA4, Figure 4B).
Supplementary Figure S2: Specificity controls were performed using a mutated version of MTP-PlexA1 […]
LVIVAVLIAYKRK). Such mutations have been previously shown to be sufficient to lose activity of NRP1 antagonist membrane domain targeting peptide (Roth et al., 2008 Mol Biol Cell). We also used MTP-Neu, a transmembrane domain targeting peptide known to […]
M, a concentration previously shown to produce maximal antagonist activity of the peptide. Additionally, we also repeated the in vitro angiogenic assay on matrigel using HUVEC cells. […]
to MTP-PlexA1. These experiments confirmed the specificity of MTP-PlexA1.
(1 picture or pasted object on this page, not shown here)

NRP1 or PlexA1 = settings: ref Arpel et al., 2014, Cell Reports; cited from earlier work
Description: Such mutations have been previously shown to be sufficient to lose activity of NRP1 antagonist membrane domain targeting peptide (Roth et al., 2008 Mol Biol Cell).

PlexA1 = assay: morpholino-based PlexA1 knockdown in zebrafish, intersegmental vessels; assay type: in vivo; settings: tg(kdrl:eGFP) zebrafish, 28 hours post fertilization, vs no injection or mismatch morpholino
Description: We observed PlexA1 positive blood vessels in the tissue array of GBM samples (Figure 5A). […] To address this possibility we first used a transgenic zebra-fish model tg(kdrl:eGFP) highlighting the endothelial cells. This allowed us to assess the angiogenic activities in vivo by analyzing formation of intersegmental vessels (ISVs) after morpholino-based knockdown of the target. […] (Scale bar: 40 μm). […] Representative images of control, Plexin-A1 mismatch and […]1 knockdown embryos (plxna1MO) are shown 28 hours post fertilization (28hpf). […] (E) Live-monitoring of VEGF-induced HUVEC cell migration assay using the […] system (transwell assay). (F) Microphotographs illustrating the expression of PlexA1 in blood vessels of the chick chorioallontoic membrane (upper left picture). Microphotographs (middle and lower left pictures) and camera lucida drawing (middle and lower right pictures) showing representative fields of observation after 24 h incubation with VEGF (100 ng/ml, +vehicle) or […]1 (10^-7 M). The number of VEGF-induced new blood vessels is shown in the graph. For knockdown of PlexA1 in the zebra fish we used morpholino oligonucleotides described by. MO ([NT]) was injected at the one-cell stage. Animals ([…] incubated at 28.5°C for 5 hours before treatment with 1-phenyl-2-thiourea (PTU) to prevent pigment formation. […]

Sequence of UniProt Q9UIW2 (Q9UIW2 27-1896): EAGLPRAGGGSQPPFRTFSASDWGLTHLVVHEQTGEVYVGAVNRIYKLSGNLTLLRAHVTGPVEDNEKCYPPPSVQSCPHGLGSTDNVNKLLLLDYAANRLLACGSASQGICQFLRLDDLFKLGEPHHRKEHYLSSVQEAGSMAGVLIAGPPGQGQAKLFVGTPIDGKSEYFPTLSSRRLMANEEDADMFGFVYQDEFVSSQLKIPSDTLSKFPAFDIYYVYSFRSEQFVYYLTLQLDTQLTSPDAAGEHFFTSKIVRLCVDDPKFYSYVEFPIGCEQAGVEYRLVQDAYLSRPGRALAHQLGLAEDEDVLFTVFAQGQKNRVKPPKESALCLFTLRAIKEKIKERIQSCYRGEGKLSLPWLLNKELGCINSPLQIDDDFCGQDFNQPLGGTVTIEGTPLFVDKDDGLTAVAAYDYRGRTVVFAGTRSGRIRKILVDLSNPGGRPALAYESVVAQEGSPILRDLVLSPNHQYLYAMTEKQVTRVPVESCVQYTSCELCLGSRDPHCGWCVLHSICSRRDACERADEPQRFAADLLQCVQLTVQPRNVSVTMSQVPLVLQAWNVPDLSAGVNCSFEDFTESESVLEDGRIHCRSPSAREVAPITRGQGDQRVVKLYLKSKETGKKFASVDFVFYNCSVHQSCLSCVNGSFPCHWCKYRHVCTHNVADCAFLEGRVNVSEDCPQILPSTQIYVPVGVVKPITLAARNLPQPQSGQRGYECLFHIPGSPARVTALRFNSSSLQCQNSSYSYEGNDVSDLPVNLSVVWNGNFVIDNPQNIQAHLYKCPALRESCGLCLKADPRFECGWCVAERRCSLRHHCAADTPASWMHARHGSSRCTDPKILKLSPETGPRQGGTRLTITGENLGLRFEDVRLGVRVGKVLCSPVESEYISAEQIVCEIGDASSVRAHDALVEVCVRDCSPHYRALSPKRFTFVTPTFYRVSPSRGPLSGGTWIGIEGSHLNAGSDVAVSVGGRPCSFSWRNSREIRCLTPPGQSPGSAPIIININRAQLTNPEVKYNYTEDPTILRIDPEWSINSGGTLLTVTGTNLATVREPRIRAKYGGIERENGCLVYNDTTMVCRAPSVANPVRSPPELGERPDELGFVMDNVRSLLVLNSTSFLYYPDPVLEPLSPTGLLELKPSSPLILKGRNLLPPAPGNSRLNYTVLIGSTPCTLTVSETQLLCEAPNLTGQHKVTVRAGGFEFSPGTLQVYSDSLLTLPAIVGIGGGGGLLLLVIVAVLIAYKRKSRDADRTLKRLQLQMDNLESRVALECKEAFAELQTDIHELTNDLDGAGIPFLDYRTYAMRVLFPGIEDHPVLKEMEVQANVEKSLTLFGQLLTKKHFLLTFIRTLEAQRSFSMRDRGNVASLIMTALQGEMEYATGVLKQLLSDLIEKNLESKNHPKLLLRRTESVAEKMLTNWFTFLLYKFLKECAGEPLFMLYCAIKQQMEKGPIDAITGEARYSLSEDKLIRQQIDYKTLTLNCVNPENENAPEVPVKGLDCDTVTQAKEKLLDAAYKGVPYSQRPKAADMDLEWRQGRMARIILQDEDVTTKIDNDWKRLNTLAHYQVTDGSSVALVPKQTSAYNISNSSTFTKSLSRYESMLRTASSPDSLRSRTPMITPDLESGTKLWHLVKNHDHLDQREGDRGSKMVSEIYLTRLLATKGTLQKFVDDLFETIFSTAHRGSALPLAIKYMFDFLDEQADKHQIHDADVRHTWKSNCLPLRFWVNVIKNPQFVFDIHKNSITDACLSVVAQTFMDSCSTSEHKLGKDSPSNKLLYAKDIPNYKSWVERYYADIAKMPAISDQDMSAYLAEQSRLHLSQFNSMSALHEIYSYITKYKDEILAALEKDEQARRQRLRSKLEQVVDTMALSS

MTP-PlexA1, synthetic transmembrane peptide mimicking the TMD of PlexA1
percent reduction of NRP1 co-immunoprecipitated with PlexA1 (VEGF) [1]: 39.4%
percent reduction of PlexA4 co-immunoprecipitated with PlexA1 (VEGF) [1]: 35.4%
percent change of PlexA1-NRP1 interactions (proximity ligation, tumor sections) [2]: -48.5%
percent reduction of NRP1/PlexA1 complexes (proximity ligation, U373MG) [3]: 29.4%

TFIIATVEGVLLFLILVVVVGILIKRR [MTP-Neu, reference compound]
disruption of NRP1/PlexA1 dimers (NRP1/PlexA1 complexes): unrelated MTP-Neu peptide
interaction with NRP1 or PlexA1 (NRP1 or PlexA1): not interact with NRP1 or PlexA1

5′-GCCACATATCTGCACTGGTCCTTGA-3′ (all phosphorodiamidate morpholino (PMO)) [morpholino sequence against PlexA1, morpholino oligonucleotide for knockdown of PlexA1 in the zebra fish]
abnormal angiogenic sprouts in intersegmental vessels (PlexA1): significant number of abnormal angiogenic sprouts
